Biological target: T1, wt.CK2-alpha-prime immobilized on GST-beads (UniProt P19784 1-350)
T1 construct: also called GST-CK2-alpha-prime; recombinant CK2-alpha-prime; not shown: N-terminal GST tag of pGEX-2lambdaT
Test: GST pull-down of in vitro-translated His-tagged p27 mutants on GST-CK2-alpha-prime, anti-His immunoblot

T1 sequence (P19784 whole entry): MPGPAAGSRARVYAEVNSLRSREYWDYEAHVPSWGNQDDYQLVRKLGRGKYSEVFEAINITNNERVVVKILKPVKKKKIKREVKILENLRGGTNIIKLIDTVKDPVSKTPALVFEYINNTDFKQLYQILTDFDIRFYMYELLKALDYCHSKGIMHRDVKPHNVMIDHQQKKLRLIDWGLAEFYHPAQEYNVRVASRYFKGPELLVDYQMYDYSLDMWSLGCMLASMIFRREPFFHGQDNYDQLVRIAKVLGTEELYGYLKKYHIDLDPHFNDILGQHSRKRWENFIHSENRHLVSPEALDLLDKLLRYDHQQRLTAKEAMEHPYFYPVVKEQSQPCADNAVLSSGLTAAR

B1: p27deltaC (p27.1-86), in vitro-translated His-tagged truncation mutant of p27 (other)
chain: MSNVRVSNGSPSLERMDARQADHPKPSACRNLFGPVDHEELTRDLEKHCRDMEEASQRKWNFDFQNHKPLEGKYEWQEVEKGSLPE
notes: also called p27ΔC; not shown: N-terminal His-tag of pEXP2
B1: no binding.

Reference: US20110086089A1 (UNIVERSITY HEALTH NETWORK, published 2011)
